Measurements from paper PMC12789631.

Test system: CCCCC[C@H](O)/C=C/[C@H]1[C@H](O)CC(=O)[C@@H]1C/C=C\CCCC(=O)O
Experiment: cells, lysate or membranes

prostaglandin transporter PGT (OATP2A1) (Homo sapiens; S346A)
Km: 1.14 µM
